# Reference: the supplement of paper PMC10724198
# ± gives the standard deviation of the averaged measurements.
# Assays:
# Saccharomyces cerevisiae [1] = experiment: protein stability index of tFT-peptide fusion (C-terminal peptide) (PSI (0-1 scale)); higher = more stable (slower turnover)
# Experimental: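 MPS profiling in S. cerevisiae of the tFT-X12 degron library: putative degron peptides plus stable controls, 12 aa, fused to the C-terminus of a sfGFP-mCherry timer. Cells are FACS-sorted into 8 mCherry/sfGFP bins and deep-sequenced. PSI runs from 0 (unstable) to 1 (stable). Backgrounds are wild type, das1Δ and doa10Δ at 30 °C, and wild type, das1Δ, cdc34-1 and cdc53-1 at 37 °C; 2-3 technical replicates each.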
# Saccharomyces cerevisiae [2] = experiment: as above; conditions: genetic background: wild type; temperature: 30 C
# [3] = genetic background: cdc34-1, temperature: 37 C
# [4] = genetic background: cdc53-1, temperature: 37 C
# [5] = genetic background: das1 deletion, temperature: 30 C
# [6] = genetic background: das1 deletion, temperature: 37 C
# [7] = genetic background: doa10 deletion, temperature: 30 C
# [8] = genetic background: wild type, temperature: 30 C
# [9] = genetic background: wild type, temperature: 37 C
# 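Further: PSI is a weighted mean of sequencing reads over stability bins, variants kept only with over 10 reads, mCherry proximal and sfGFP distal, peptide attached via GGGS linker.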
Sequence,protein stability index (Saccharomyces cerevisiae [1]; [3]),protein stability index (Saccharomyces cerevisiae [1]; [4]),protein stability index (Saccharomyces cerevisiae [1]; [5]),protein stability index (Saccharomyces cerevisiae [1]; [6]),protein stability index (Saccharomyces cerevisiae [1]; [7]),protein stability index (Saccharomyces cerevisiae [1]; [8]),protein stability index (Saccharomyces cerevisiae [1]; [9]),protein stability index (Saccharomyces cerevisiae [2])
RLVRILSTILLN,0.487 ± 0.079,0.638 ± 0.038,0.576 ± 0.028,0.703 ± 0.052,0.0769 ± 0.029,0.1 ± 0.014,0.0569 ± 0.034,0.177 ± 0.049
RLVVSRNFYRLC,0.622 ± 0.054,0.723 ± 0.017,0.6318 ± 0.006,0.7235 ± 0.0012,0.125 ± 0.0022,0.135 ± 0.014,0.342 ± 0.0091,0.304 ± 0.1
RLWLPLSLVLWV,0.376 ± 0.05,0.3824 ± 0.0031,0.37 ± 0.072,0.505 ± 0.012,0.414 ± 0.03,0.341 ± 0.05,0.421 ± 0.041,0.427 ± 0.029
RMCEILGIRHLI,0.611 ± 0.031,0.742 ± 0.016,0.645 ± 0.025,0.748 ± 0.017,0.137 ± 0.013,0.158 ± 0.01,0.303 ± 0.016,0.245 ± 0.061
RMCPWVSVRVGV,0.558 ± 0.028,0.5891 ± 0.0027,0.382 ± 0.036,0.5922 ± 0.0023,0.3537 ± 0.0019,0.391 ± 0.013,0.5825 ± 0.00065,0.485 ± 0.0071
RPRRARLPNFLA,0.37 ± 0.0066,0.64023 ± 0.0001,0.653 ± 0.022,0.705 ± 0.018,0.0688 ± 0.021,0.073 ± 0.0067,0.0894 ± 0.0014,0.0979 ± 0.012
RPRVAGLMTLVS,0.698 ± 0.013,0.686 ± 0.052,0.543 ± 0.018,0.707 ± 0.025,0.459 ± 0.03,0.459 ± 0.032,0.672 ± 0.0094,0.5 ± 0.0055
RRSRLYKKAGLM,0.609 ± 0.011,0.7374 ± 0.0017,0.643 ± 0.02,0.745 ± 0.011,0.179 ± 0.001,0.181 ± 0.037,0.296 ± 0.0014,0.301 ± 0.064
RSIVFRVSRRLN,0.65 ± 0.074,0.729 ± 0.019,0.671 ± 0.023,0.726 ± 0.015,0.13 ± 0.0084,0.161 ± 0.025,0.343 ± 0.044,0.277 ± 0.034
RTKIKKKIMKNI,0.621 ± 0.051,0.718 ± 0.032,0.667 ± 0.023,0.716 ± 0.029,0.473 ± 0.052,0.532 ± 0.016,0.651 ± 0.037,0.515 ± 0.062
RVCCLSFFFVFL,0.445 ± 0.022,0.581 ± 0.054,0.398 ± 0.036,0.581 ± 0.014,0.427 ± 0.0094,0.391 ± 0.0052,0.551 ± 0.027,0.517 ± 0.024
RVCYQIAISLPI,0.546 ± 0.0067,0.571 ± 0.027,0.438 ± 0.012,0.552 ± 0.013,0.428 ± 0.022,0.432 ± 0.02,0.542 ± 0.03,0.495 ± 0.016
RVDVSVLWNRRS,0.655 ± 0.045,0.75995 ± 0.0007,0.669 ± 0.0086,0.744 ± 0.028,0.284 ± 0.026,0.312 ± 0.038,0.511 ± 0.013,0.4857 ± 0.0047
RVEPYDLARRVL,0.725 ± 0.038,0.768 ± 0.028,0.665 ± 0.027,0.759 ± 0.02,0.652 ± 0.025,0.628 ± 0.015,0.71 ± 0.018,0.726 ± 0.0081
RVITRMLLMVIR,0.318 ± 0.056,0.365 ± 0.031,0.353 ± 0.029,0.512 ± 0.019,0.493 ± 0.0081,0.359 ± 0.011,0.47449 ± 0.00047,0.43 ± 0.036
RVPCCLSFVPVC,0.508 ± 0.032,0.5131 ± 0.004,0.394 ± 0.026,0.5682 ± 0.0047,0.363 ± 0.0097,0.405 ± 0.027,0.5362 ± 0.0037,0.452 ± 0.033
RVSECVSVVGWM,0.678 ± 0.082,0.723 ± 0.025,0.624 ± 0.019,0.737 ± 0.011,0.619 ± 0.024,0.633 ± 0.0064,0.7147 ± 0.0044,0.562 ± 0.14
RVYLLGLFVRSG,0.552 ± 0.035,0.61 ± 0.014,0.409 ± 0.04,0.632 ± 0.021,0.325 ± 0.017,0.371 ± 0.031,0.574 ± 0.033,0.491 ± 0.0076
RWCLELLWITSC,0.325 ± 0.013,0.451 ± 0.013,0.355 ± 0.03,0.5006 ± 0.005,0.0892 ± 0.0011,0.0824 ± 0.015,0.0678 ± 0.011,0.162 ± 0.015
RWPLVIRSLIVF,0.196 ± 0.0088,0.226 ± 0.0098,0.251 ± 0.026,0.325 ± 0.019,0.214 ± 0.00073,0.22 ± 0.017,0.233 ± 0.01,0.2944 ± 0.0027

Sequence,protein stability index (Saccharomyces cerevisiae [1]; [3]),protein stability index (Saccharomyces cerevisiae [1]; [4]),protein stability index (Saccharomyces cerevisiae [1]; [5]),protein stability index (Saccharomyces cerevisiae [1]; [6]),protein stability index (Saccharomyces cerevisiae [1]; [7]),protein stability index (Saccharomyces cerevisiae [1]; [8]),protein stability index (Saccharomyces cerevisiae [1]; [9]),protein stability index (Saccharomyces cerevisiae [2])
RWRRWCVVLFVV,0.197 ± 0.043,0.307 ± 0.021,0.301 ± 0.025,0.456 ± 0.0067,0.0648 ± 0.015,0.0689 ± 0.013,0.0816 ± 0.01,0.117 ± 0.012
RYVFAFRRNYFC,0.448 ± 0.089,0.682 ± 0.0095,0.636 ± 0.018,0.744 ± 0.0096,0.171 ± 0.014,0.174 ± 0.026,0.299 ± 0.038,0.223 ± 0.015
RYVVVGACIQVV,0.421 ± 0.015,0.447 ± 0.0078,0.302 ± 0.024,0.48 ± 0.0021,0.274 ± 0.015,0.314 ± 0.012,0.4511 ± 0.003,0.37 ± 0.011
SDAIKITFIIHN,0.687 ± 0.043,0.632 ± 0.024,0.59 ± 0.012,0.667 ± 0.016,0.425 ± 0.01,0.46 ± 0.009,0.586 ± 0.0065,0.473 ± 0.062
SFFFLILFLFRD,0.372 ± 0.11,0.459 ± 0.04,0.315 ± 0.029,0.484 ± 0.014,0.318 ± 0.019,0.299 ± 0.03,0.466 ± 0.04,0.385 ± 0.053
SFLACFVLAFFC,0.4055 ± 0.00023,0.478 ± 0.018,0.346 ± 0.032,0.475 ± 0.011,0.24 ± 0.0037,0.281 ± 0.017,0.411 ± 0.022,0.372 ± 0.014
SFPPLPPLPLPP,0.64 ± 0.032,0.688 ± 0.0089,0.578 ± 0.0094,0.6778 ± 0.0031,0.594 ± 0.014,0.5917 ± 0.0043,0.6445 ± 0.0054,0.571 ± 0.2
SFTRYIFFLMFF,0.438 ± 0.051,0.475 ± 0.037,0.417 ± 0.023,0.585 ± 0.021,0.4089 ± 0.0013,0.325 ± 0.017,0.456 ± 0.0069,0.355 ± 0.015
SGPCSPRNLRRL,0.699 ± 0.032,0.754 ± 0.012,0.621 ± 0.017,0.736 ± 0.019,0.651 ± 0.015,0.647 ± 0.03,0.719 ± 0.02,0.281 ± 0.018
SGPTIRRRLFVH,0.647 ± 0.021,0.735 ± 0.02,0.621 ± 0.012,0.7286 ± 0.0068,0.148 ± 0.018,0.17 ± 0.043,0.347 ± 0.019,0.333 ± 0.0092
SLIDPLGNLFNS,0.71 ± 0.015,0.756 ± 0.038,0.682 ± 0.039,0.756 ± 0.028,0.672 ± 0.024,0.678 ± 0.014,0.72 ± 0.018,0.752 ± 0.041
SLIFLLVLILSL,0.412 ± 0.023,0.51 ± 0.05,0.369 ± 0.038,0.493 ± 0.029,0.364 ± 0.048,0.347 ± 0.036,0.483 ± 0.046,0.363 ± 0.074
SLLFLVLFFPLV,0.4885 ± 0.00069,0.524 ± 0.025,0.42 ± 0.034,0.55 ± 0.029,0.456 ± 0.019,0.43 ± 0.03,0.506 ± 0.0075,0.432 ± 0.023
SLPCCKVVFCVI,0.5166 ± 0.001,0.554 ± 0.023,0.417 ± 0.038,0.575 ± 0.01,0.332 ± 0.0048,0.355 ± 0.036,0.515 ± 0.015,0.4491 ± 0.003
SLVIRLNIRLIL,0.462 ± 0.021,0.435 ± 0.0077,0.423 ± 0.03,0.414 ± 0.034,0.329 ± 0.0061,0.325 ± 0.018,0.361 ± 0.019,0.394 ± 0.011
SPCSNFLECLSF,0.714 ± 0.03,0.7431 ± 0.0018,0.643 ± 0.0079,0.729 ± 0.017,0.626 ± 0.025,0.641 ± 0.017,0.733 ± 0.0071,0.561 ± 0.11
SPGFVLLAVLVI,0.1636 ± 0.0011,0.235 ± 0.0088,0.231 ± 0.029,0.356 ± 0.016,0.194 ± 0.002,0.214 ± 0.025,0.323 ± 0.04,0.347 ± 0.086
SPGGALVFFVLV,0.552 ± 0.038,0.5998 ± 0.0056,0.44 ± 0.023,0.617 ± 0.0083,0.391 ± 0.012,0.431 ± 0.027,0.606 ± 0.017,0.467 ± 0.0054
SPRSIALLHLFS,0.648 ± 0.063,0.708 ± 0.051,0.655 ± 0.02,0.705 ± 0.062,0.154 ± 0.017,0.213 ± 0.031,0.327 ± 0.024,0.3 ± 0.044
